Two molecules from article PMC6361588, “Exploration of CTCF post-translation modifications uncovers Serine-224 phosphorylation by PLK1 at pericentric regions during the G2/M transition” can be followed below.

Series [1] addresses T1, FLAG-CTCF(S224E)-6xHis (UniProt Q61164 1-736, S224E).
T1 sequence: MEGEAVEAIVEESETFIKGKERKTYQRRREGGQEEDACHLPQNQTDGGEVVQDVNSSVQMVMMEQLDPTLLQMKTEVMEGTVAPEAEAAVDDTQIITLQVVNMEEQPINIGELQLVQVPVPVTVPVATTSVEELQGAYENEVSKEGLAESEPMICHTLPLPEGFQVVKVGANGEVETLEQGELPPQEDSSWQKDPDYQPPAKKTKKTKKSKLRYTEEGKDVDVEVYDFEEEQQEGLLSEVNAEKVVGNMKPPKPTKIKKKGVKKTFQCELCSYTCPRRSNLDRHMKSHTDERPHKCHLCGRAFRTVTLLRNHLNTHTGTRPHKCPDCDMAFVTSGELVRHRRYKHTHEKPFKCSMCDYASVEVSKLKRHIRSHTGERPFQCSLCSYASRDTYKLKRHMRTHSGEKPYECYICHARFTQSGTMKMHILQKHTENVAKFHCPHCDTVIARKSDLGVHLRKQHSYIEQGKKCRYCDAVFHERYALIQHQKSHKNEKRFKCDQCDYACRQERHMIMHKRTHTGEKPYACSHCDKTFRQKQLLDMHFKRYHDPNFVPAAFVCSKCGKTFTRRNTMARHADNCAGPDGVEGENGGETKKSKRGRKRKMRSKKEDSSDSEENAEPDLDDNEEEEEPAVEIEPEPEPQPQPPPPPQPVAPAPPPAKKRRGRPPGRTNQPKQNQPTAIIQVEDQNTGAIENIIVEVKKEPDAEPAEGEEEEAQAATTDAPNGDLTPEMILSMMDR
As to the kind of experiment: EMSA; 0.5, 1 or 2 pmol protein; EMSA as in Sun et al., 2013; buffer, salt, pH and temperature not given in the material. Particulars: protein: recombinant; tags: N-terminal FLAG, C-terminal 6xHis; blunt.

Series [2] addresses T2, FLAG-CTCF(S224A)-6xHis (UniProt Q61164 1-736, S224A).
T2 sequence: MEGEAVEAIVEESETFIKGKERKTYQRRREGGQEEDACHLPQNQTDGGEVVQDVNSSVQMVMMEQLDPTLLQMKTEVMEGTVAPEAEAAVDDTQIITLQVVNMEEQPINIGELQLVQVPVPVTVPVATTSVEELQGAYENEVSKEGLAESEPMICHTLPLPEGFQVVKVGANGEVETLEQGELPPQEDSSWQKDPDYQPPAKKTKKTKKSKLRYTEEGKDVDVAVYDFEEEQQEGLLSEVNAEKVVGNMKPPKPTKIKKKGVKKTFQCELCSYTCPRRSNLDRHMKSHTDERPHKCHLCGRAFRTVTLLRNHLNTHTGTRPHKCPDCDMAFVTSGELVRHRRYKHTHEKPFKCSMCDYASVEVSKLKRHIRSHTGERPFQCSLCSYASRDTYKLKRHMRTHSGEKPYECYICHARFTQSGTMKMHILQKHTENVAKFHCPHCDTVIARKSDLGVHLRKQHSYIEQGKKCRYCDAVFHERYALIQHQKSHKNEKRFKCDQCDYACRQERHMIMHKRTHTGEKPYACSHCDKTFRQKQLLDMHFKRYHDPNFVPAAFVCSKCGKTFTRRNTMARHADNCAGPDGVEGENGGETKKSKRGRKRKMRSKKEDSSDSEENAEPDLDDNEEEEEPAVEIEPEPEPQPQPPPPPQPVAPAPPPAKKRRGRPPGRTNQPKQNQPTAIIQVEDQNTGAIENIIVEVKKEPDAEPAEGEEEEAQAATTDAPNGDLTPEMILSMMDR
The series is described as above. The settings on record: protein: recombinant; tags: N-terminal FLAG, C-terminal 6xHis; blunt.

B1: RS14C (dsDNA)
DNA 1: CTATGCATTAGGTTTGGGTGTTATACCCGTGTAGGCCAGCAGAGGGTGTCGGATCCCAAGGAAACCAAGTTACAGACGCC
DNA 2: GGCGTCTGTAACTTGGTTTCCTTGGGATCCGACACCCTCTGCTGGCCTACACGGGTATAACACCCAAACCTAATGCATAG
For B1, the binding result in series [1] and in series [2] was “binds” throughout.

B2: RS14C mutant (dsDNA)
DNA 1: CTATGCATTAGGTTTGGGTGTTATACCCGTGTAGGCTAGCACAGTGTGTCGGATCCCAAGGAAACCAAGTTACAGACGCC
DNA 2: GGCGTCTGTAACTTGGTTTCCTTGGGATCCGACACACTGTGCTAGCCTACACGGGTATAACACCCAAACCTAATGCATAG
With B2, the binding result in series [1] and in series [2] was “no binding” in each case.
